Data published in PMC4605305, “TRAP150 interacts with the RNA-binding domain of PSF and antagonizes splicing of numerous PSF-target genes in T cells” (Nucleic Acids Research, 2015).

T1: HisFLAG-PSF exRRMs (266-484) (UniProt P23246 266-484)
T1 construct: also called HisFLAG-exRRMs; HFexRRM1+2; source: E. coli Rosetta(DE3)pLysS, purified (Ni-NTA, SEC); not shown: His6, N-terminal, kept; FLAG, N-terminal, kept
T1 sequence (looked up): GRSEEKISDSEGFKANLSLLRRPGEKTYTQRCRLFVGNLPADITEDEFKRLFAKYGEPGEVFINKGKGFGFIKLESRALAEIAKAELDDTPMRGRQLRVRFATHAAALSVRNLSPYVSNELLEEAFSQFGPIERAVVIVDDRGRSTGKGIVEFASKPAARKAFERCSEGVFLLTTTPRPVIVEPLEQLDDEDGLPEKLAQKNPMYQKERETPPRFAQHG

T2: HisFLAG-PSF full length (UniProt P23246 1-707)
T2 construct: PSF (SFPQ), full length; pet15b with an inserted FLAG tag; also called PSF-FL; full length His-tagged PSF; source: E. coli Rosetta(DE3)pLysS, purified (Ni-NTA, SEC); not shown: His6, N-terminal, kept; FLAG, N-terminal, kept
T2 sequence (looked up): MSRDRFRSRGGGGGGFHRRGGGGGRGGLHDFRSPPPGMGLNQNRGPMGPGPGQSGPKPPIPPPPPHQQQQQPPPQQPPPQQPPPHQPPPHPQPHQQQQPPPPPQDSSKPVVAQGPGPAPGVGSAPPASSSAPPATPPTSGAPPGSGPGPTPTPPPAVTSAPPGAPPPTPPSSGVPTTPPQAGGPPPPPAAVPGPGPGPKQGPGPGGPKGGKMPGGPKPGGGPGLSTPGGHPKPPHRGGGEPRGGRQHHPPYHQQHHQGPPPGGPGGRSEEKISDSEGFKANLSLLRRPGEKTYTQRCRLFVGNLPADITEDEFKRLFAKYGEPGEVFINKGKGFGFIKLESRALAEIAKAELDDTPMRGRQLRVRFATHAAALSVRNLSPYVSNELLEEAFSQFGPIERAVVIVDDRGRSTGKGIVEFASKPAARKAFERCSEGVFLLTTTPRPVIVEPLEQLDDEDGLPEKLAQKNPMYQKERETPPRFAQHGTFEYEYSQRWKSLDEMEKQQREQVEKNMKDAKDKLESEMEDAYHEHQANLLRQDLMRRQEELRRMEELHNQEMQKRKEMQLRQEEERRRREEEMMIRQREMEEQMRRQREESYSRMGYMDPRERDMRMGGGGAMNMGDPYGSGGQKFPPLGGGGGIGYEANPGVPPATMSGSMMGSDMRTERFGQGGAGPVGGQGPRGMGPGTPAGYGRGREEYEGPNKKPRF

T3: PSF exRRMs (human, UniProt P23246 266-484)
T3 sequence: T1 sequence (looked up)

T4: PSF exRRM2 (human, UniProt P23246 366-484)
T4 sequence: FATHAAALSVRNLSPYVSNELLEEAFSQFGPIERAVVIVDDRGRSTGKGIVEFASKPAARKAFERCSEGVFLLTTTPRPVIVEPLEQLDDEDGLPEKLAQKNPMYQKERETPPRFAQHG

T5: PSF exRRM1 (human, UniProt P23246 266-365)
T5 sequence: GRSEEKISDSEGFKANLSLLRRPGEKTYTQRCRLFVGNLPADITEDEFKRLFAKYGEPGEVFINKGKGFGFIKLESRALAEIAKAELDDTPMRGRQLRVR

B1: GST-TRAP150 686–755 (PSF-interacting domain, PID) (domain or fragment, UniProt Q9Y2W1 686-755, looked up)
chain: FRKHGLAHDEMKSPREPGYKAEGKYKDDPVDLRLDIERRKKHKERDLKRGKSRESVDSRDSSHSRERSAE
notes: also called GST-TRAP(PID); TRAP150 PID; source: E. coli Rosetta(DE3)pLysS, purified (glutathione sepharose, SEC); not shown: GST, N-terminal, kept
B2: Gb1-tagged TRAP150 686–755 (TRAP-PID) (domain or fragment, UniProt Q9Y2W1 686-755, looked up)
chain: B1 chain
notes: 6xHis + GB1 fusion vector pGβ1; also called Gb1-tagged construct of the TRAP-PID; source: E. coli Rosetta(DE3)pLysS, purified (Ni-NTA, SEC)
B3: GST-TRAPΔN (TRAP150 266-955) (domain or fragment, UniProt Q9Y2W1 266-955, looked up)
chain: RPSPVPKPSPPLSSTSQMGSTLPSGAGYQSGTHQGQFDHGSGSLSPSKKSPVGKSPPSTGSTYGSSQKEESAASGGAAYTKRYLEEQKTENGKDKEQKQTNTDKEKIKEKGSFSDTGLGDGKMKSDSFAPKTDSEKPFRGSQSPKRYKLRDDFEKKMADFHKEEMDDQDKDKAKGRKESEFDDEPKFMSKVIGANKNQEEEKSGKWEGLVYAPPGKEKQRKTEELEEESFPERSKKEDRGKRSEGGHRGFVPEKNFRVTAYKAVQEKSSSPPPRKTSESRDKLGAKGDFPTGKSSFSITREAQVNVRMDSFDEDLARPSGLLAQERKLCRDLVHSNKKEQEFRSIFQHIQSAQSQRSPSELFAQHIVTIVHHVKEHHFGSSGMTLHERFTKYLKRGTEQEAAKNKKSPEIHRRIDISPSTFRKHGLAHDEMKSPREPGYKAEGKYKDDPVDLRLDIERRKKHKERDLKRGKSRESVDSRDSSHSRERSAEKTEKTHKGSKKQKKHRRARDRSRSSSSSSQSSHSYKAEEYTEETEEREESTTGFDKSRLGTKDFVGPSERGGGRARGTFQFRARGRGWGRGNYSGNNNNNSNNDFQKRNREEEWDPEYTPKSKKYYLHDDREGEGSDKWVSRGRGRGAFPRGRGRFMFRKSSTSPKWAHDKFSGEEGEIEDDESGTENREEKDNIQPTTE
notes: pGEX-6-P1; also called GST-TRAP150ΔN; TRAP150-ΔN; source: E. coli Rosetta(DE3)pLysS, purified (glutathione sepharose, SEC); not shown: GST, N-terminal, kept
B4: HisFLAG-PSF ΔRRM1 (natural protein)
chain: MSRDRFRSRGGGGGGFHRRGGGGGRGGLHDFRSPPPGMGLNQNRGPMGPGPGQSGPKPPIPPPPPHQQQQQPPPQQPPPQQPPPHQPPPHPQPHQQQQPPPPPQDSSKPVVAQGPGPAPGVGSAPPASSSAPPATPPTSGAPPGSGPGPTPTPPPAVTSAPPGAPPPTPPSSGVPTTPPQAGGPPPPPAAVPGPGPGPKQGPGPGGPKGGKMPGGPKPGGGPGLSTPGGHPKPPHRGGGEPRGGRQHHPPYHQQHHQGPPPGGPGGRSEEKISDSEGFKANLSLLRRPGEKTYTQRCRGGSGHMATHAAALSVRNLSPYVSNELLEEAFSQFGPIERAVVIVDDRGRSTGKGIVEFASKPAARKAFERCSEGVFLLTTTPRPVIVEPLEQLDDEDGLPEKLAQKNPMYQKERETPPRFAQHGTFEYEYSQRWKSLDEMEKQQREQVEKNMKDAKDKLESEMEDAYHEHQANLLRQDLMRRQEELRRMEELHNQEMQKRKEMQLRQEEERRRREEEMMIRQREMEEQMRRQREESYSRMGYMDPRERDMRMGGGGAMNMGDPYGSGGQKFPPLGGGGGIGYEANPGVPPATMSGSMMGSDMRTERFGQGGAGPVGGQGPRGMGPGTPAGYGRGREEYEGPNKKPRF
notes: PSF (SFPQ) residues 1-298; linker joining the N- and C-terminal portions; PSF (SFPQ) residues 367-707; source: E. coli Rosetta(DE3)pLysS, purified (Ni-NTA, SEC); not shown: His6, N-terminal, kept; FLAG, N-terminal, kept
B5: HisFLAG-PSF ΔRRM2 (natural protein)
chain: MSRDRFRSRGGGGGGFHRRGGGGGRGGLHDFRSPPPGMGLNQNRGPMGPGPGQSGPKPPIPPPPPHQQQQQPPPQQPPPQQPPPHQPPPHPQPHQQQQPPPPPQDSSKPVVAQGPGPAPGVGSAPPASSSAPPATPPTSGAPPGSGPGPTPTPPPAVTSAPPGAPPPTPPSSGVPTTPPQAGGPPPPPAAVPGPGPGPKQGPGPGGPKGGKMPGGPKPGGGPGLSTPGGHPKPPHRGGGEPRGGRQHHPPYHQQHHQGPPPGGPGGRSEEKISDSEGFKANLSLLRRPGEKTYTQRCRLFVGNLPADITEDEFKRLFAKYGEPGEVFINKGKGFGFIKLESRALAEIAKAELDDTPMRGRQLRVRFATHAGGSGHMLEQLDDEDGLPEKLAQKNPMYQKERETPPRFAQHGTFEYEYSQRWKSLDEMEKQQREQVEKNMKDAKDKLESEMEDAYHEHQANLLRQDLMRRQEELRRMEELHNQEMQKRKEMQLRQEEERRRREEEMMIRQREMEEQMRRQREESYSRMGYMDPRERDMRMGGGGAMNMGDPYGSGGQKFPPLGGGGGIGYEANPGVPPATMSGSMMGSDMRTERFGQGGAGPVGGQGPRGMGPGTPAGYGRGREEYEGPNKKPRF
notes: PSF (SFPQ) residues 1-370; linker joining the N- and C-terminal portions; PSF (SFPQ) residues 450-707; source: E. coli Rosetta(DE3)pLysS, purified (Ni-NTA, SEC); not shown: His6, N-terminal, kept; FLAG, N-terminal, kept
B6: GST-TRAP150 580–755 (domain or fragment, UniProt Q9Y2W1 580-755, looked up)
chain: LARPSGLLAQERKLCRDLVHSNKKEQEFRSIFQHIQSAQSQRSPSELFAQHIVTIVHHVKEHHFGSSGMTLHERFTKYLKRGTEQEAAKNKKSPEIHRRIDISPSTFRKHGLAHDEMKSPREPGYKAEGKYKDDPVDLRLDIERRKKHKERDLKRGKSRESVDSRDSSHSRERSAE
notes: source: E. coli Rosetta(DE3)pLysS, purified (glutathione sepharose, SEC); not shown: GST, N-terminal, kept
B7: MKK7 (ssRNA)
RNA: CCUCCUCGUUUAUGAUUUGAUUUCUUUUCUUUUGGACGAAUCGGUCGUUUCUGUUGUGAUUUAUCGUGGUGUUGUUUUUUUCUUCCUUUUCCCCAUCCAG
B8: SRL-1 (ssRNA)
RNA: AACCAAGAGGUUUCUCGCGUAUUUCUCUCAUUUUUUUACCCAUUUUACAAAUUUUUUUUGCUAUUUGAGCCAUAGUACCCAUUAAUAGGUCUCGUCCAUUCCCUUGUUUUUUUUUUAUUGUUUCAAUUACACUACAUAAUUAAAAAUCACAUCACUUUCACUCUCACCUUAGUCGUUCUUUAUCAACCAAAAAUAAAAAAAUGCUUCAAUCCGUUGUCUU

Experiments:
[1] = target: T1, HisFLAG-PSF exRRMs (266-484); assay: pull-down; 40 ug GST-tagged bait on glutathione sepharose 4B beads; prey incubated 1.5 h at 4°C in PBS; washes with PBS supplemented with 300 mM NaCl; western blot; details: both partners purified
[2] = target: T1, HisFLAG-PSF exRRMs (266-484); assay: pull-down; Gb1-tagged TRAP150 686-755 precipitated with IgG beads; HisFLAG-exRRMs detected; details: both partners purified
HisFLAG-PSF full length = target: T2, HisFLAG-PSF full length; assay: pull-down; 40 ug GST-tagged bait on glutathione sepharose 4B beads; prey incubated 1.5 h at 4°C in PBS; washes with PBS supplemented with 300 mM NaCl; western blot; details: both partners purified
[3] = target: B3; assay: as above; details: both partners purified
PSF exRRMs = target: T3, PSF exRRMs; assay: EMSA; UV crosslinking: 12 mM Tris pH 7.5, 120 mM NaCl, 3 mM MgCl2, 1 mM ATP, 20 mM phosphocreatine, 0.1 mM EDTA, 12% glycerol, 1.3% PVA, 25 ng/ul yeast tRNA, 20 ng/ul; details: protein: recombinant; tags: 6xHis-FLAG N-term; label: uniform 32P
PSF exRRM2 = target: T4, PSF exRRM2; assay: as above; details: protein: recombinant; tags: 6xHis-FLAG N-term; label: uniform 32P
PSF exRRM1 = target: T5, PSF exRRM1; assay: EMSA; unmeasurable affinity; UV crosslinking: 12 mM Tris pH 7.5, 120 mM NaCl, 3 mM MgCl2, 1 mM ATP, 20 mM phosphocreatine, 0.1 mM EDTA, 12% glycerol, 1.3% PVA, 25 ng/ul yeast tRNA, 20 ng/ul; details: protein: recombinant; tags: 6xHis-FLAG N-term; label: uniform 32P

B1
binding result [1]: binds

B2
binding result [2]: binds

B3
binding result (HisFLAG-PSF full length): binds

B4
binding result [3]: binds

B5
binding result [3]: binds

B6
binding result [1]: binds

B7
binding result (PSF exRRMs): binds
binding result (PSF exRRM2): binds
binding result (PSF exRRM1): no binding

B8
binding result (PSF exRRMs): binds
binding result (PSF exRRM2): binds
binding result (PSF exRRM1): no binding
